Data reported in publication PMC10023571, “EGOC inhibits TOROID polymerization by structurally activating TORC1” (Nature Structural & Molecular Biology, 2023).

B1: Kog1 (Kog1-TAP) in the TOROID (natural protein, S. cerevisiae)
chain: MPEIYGPQPLKPLNTVMRHGFEEQYQSDQLLQSLANDFIFYFDDKRHKTNGNPIPEEDKQRDVNRYYQPITDWKIMKDRQKTVSAALLLCLNLGVDPPDVMKTHPCARVEAWVDPLNFQDSKKAIEQIGKNLQAQYETLSLRTRYKQSLDPCVEDVKRFCNSLRRTSKEDRILFHYNGHGVPKPTKSGEIWVFNRGYTQYIPVSLYDLQTWLGAPCIFVYDCNSAENILINFQKFVQKRIKDDEEGNHDVAAPSPTSAYQDCFQLASCTSDELLLMSPELPADLFSCCLTCPIEISIRIFLMQSPLKDSKYKIFFENSTSNQPFGDSKNSFKSKIPNVNIPGMLSDRRTPLGELNWIFTAITDTIAWTSLPRPLFKKLFRHDLMIAALFRNFLLAKRIMPWYNCHPVSDPELPDSITTHPMWKSWDLAMDEVLTKIVIDLKNAPPATALESQMILQQQETLQNGGSSKSNAQDTKAGSIQTQSRFAVANLSTMSLVNNPALQSRKSISLQSSQQQLQQQQQQQQQFTGFFEQNLTAFELWLKYASNVRHPPEQLPIVLQVLLSQVHRIRALVLLSRFLDLGPWAVYLSLSIGIFPYVLKLLQSPAPELKPILVFIWARIMSIDYKNTQSELIKEKGYMYFVTVLVPDWGVNGMSATNGSAMINSGNPLTMTASQNINGPSSRYYERQQGNRTSNLGHNNLPFYHSNDTTDEQKAMAVFVLASFVRNFPLGQKNCFSLELVNKLCFYIDNSEIPLLRQWCVILLGLLFADNPLNRFVCMNTGAVEILLKSLKDPVPEVRTASIFALKHFISGFQDAEVILRLQQEFEEQYQQLHSQLQHLQNQSHLQQQQSQQQQQHLEQQQMKIEKQIRHCQVMQNQLEVIDLRKLKRQEIGNLISILPLINDGSSLVRKELVVYFSHIVSRYSNFFIVVVFNDLLEEIKLLEKSDINTRNTSDKYSVSQGSIFYTVWKSLLILAEDPFLENKELSKQVIDYILLELSAHKELGGPFAVMEKFLLKRSSKAHQTGKFGFNSSQVQFVKSSLRSFSPNERVDNNAFKKEQQQHDPKISHPMRTSLAKLFQSLGFSESNSDSDTQSSNTSMKSHTSKKGPSGLYLLNGNNNIYPTAETPRFRKHTEPLQLPLNSSFLDYSREYFQEPQMKKQEADEPGSVEYNARLWRRNRNETIIQETQGEKKLSIYGNWSKKLISLNNKSQPKLMKFAQFEDQLITADDRSTITVFDWEKGKTLSKFSNGTPFGTKVTDLKLINEDDSALLLTGSSDGVIKIYRDYQDVDTFKIVSAWRGLTDMLLTPRSTGLLTEWLQIRGSLLTTGDVKVIRVWDAHTETVEVDIPAKTSSLITSLTADQLAGNIFVAGFADGSLRVYDRRLDPRDSMIRRWRAGNDKQGVWINNVHLQRGGYRELVSGATNGVVELWDIRSEDPVESFVDQNVTSQYGSQQKPTTMTCMQVHEHAPIIATGTKQIKIWTTSGDLLNSFKNSHNNGVTSTLAATGIPKSLSYSSTSDAFLSSMAFHPHRMMIAATNSHDSIVNIYKCEDERIDYF
notes: Kog1, S. cerevisiae, expressed as KOG1-TAP; source: S. cerevisiae KOG1-TAP ∆tor1 cells grown PDS, purified as TOROID

Assays:
Test in all cases: cryo-EM structure; TOROID filaments purified from KOG1-TAP ∆tor1 cells grown PDS (subunits co-purified from yeast); helical reconstruction, then signal subtraction and single particle analysis, 3.87 Å
[1] = biological target: T1, Tor2 in the TOROID (S. cerevisiae (endogenous in S. …, UniProt P32600 1-2474)); conditions: both partners purified
T1 construct: Tor2, S. cerevisiae; source: S. cerevisiae KOG1-TAP ∆tor1 cells grown PDS, purified as TOROID

[2] = biological target: B1; conditions: both partners purified
[3] = biological target: the molecule itself

T1 sequence (P32600 whole entry): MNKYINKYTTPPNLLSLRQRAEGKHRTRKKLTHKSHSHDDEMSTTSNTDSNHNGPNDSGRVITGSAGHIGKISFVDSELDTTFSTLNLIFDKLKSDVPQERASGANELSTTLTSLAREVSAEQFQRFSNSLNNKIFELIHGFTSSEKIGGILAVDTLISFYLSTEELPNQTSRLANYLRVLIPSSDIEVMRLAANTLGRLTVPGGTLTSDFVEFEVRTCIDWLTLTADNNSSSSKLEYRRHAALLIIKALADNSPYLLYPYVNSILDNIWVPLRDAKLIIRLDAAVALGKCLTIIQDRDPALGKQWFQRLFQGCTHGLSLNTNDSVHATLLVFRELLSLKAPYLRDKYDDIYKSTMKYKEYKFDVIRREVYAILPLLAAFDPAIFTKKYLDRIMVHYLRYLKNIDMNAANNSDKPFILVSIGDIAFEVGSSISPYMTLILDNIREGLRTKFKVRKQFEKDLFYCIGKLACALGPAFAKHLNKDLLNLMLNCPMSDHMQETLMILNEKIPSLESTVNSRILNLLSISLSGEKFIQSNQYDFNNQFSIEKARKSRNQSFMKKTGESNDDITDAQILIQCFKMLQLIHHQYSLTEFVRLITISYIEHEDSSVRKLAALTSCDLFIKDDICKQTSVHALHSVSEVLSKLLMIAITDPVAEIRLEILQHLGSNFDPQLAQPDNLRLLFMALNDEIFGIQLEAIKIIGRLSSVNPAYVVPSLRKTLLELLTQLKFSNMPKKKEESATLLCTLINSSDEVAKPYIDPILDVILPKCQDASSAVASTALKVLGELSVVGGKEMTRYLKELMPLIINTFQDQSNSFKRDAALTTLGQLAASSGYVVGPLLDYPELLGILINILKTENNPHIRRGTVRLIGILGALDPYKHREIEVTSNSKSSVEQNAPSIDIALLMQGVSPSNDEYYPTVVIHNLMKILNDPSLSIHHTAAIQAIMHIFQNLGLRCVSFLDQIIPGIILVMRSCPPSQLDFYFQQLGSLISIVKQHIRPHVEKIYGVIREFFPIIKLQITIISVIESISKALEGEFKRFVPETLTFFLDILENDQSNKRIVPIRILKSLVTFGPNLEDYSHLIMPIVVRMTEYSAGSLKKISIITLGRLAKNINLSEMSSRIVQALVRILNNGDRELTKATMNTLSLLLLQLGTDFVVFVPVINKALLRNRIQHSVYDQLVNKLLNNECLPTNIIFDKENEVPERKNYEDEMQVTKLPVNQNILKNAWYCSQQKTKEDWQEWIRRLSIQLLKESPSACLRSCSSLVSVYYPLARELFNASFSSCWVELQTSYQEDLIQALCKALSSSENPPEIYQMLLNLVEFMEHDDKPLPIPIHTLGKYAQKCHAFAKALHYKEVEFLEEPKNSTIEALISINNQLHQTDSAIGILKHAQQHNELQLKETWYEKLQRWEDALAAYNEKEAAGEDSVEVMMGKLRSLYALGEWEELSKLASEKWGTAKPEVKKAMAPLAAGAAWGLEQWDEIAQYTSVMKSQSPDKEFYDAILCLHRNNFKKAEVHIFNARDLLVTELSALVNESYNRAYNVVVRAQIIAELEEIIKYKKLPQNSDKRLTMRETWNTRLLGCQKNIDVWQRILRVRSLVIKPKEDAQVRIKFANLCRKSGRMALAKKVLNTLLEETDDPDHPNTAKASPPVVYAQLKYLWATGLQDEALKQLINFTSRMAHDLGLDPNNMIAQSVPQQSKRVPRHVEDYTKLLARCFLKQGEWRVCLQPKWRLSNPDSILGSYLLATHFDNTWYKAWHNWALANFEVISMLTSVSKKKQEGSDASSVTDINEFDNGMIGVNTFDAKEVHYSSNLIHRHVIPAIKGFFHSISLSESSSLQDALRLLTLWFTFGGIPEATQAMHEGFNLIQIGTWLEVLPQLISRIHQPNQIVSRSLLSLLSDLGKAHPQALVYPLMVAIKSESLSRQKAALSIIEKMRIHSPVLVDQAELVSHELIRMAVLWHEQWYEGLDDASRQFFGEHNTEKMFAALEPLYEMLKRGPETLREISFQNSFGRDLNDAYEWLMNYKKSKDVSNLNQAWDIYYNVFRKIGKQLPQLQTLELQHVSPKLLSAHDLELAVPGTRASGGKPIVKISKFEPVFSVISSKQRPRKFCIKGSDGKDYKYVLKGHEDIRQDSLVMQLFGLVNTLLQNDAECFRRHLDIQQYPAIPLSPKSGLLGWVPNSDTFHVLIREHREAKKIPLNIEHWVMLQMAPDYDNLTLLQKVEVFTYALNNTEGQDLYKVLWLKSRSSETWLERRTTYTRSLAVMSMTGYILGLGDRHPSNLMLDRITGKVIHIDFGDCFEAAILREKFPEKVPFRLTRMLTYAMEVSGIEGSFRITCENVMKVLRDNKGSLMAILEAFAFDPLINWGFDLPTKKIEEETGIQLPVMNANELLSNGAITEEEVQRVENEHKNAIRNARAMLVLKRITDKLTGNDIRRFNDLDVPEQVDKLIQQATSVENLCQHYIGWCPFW

Binder | binding result [1] | binding result [2] | binding result [3]
Lst8 in the TOROID (natural protein, UniProt P41318 1-303, looked up, Lst8, S. cerevisiae; source: S. cerevisiae KOG1-TAP ∆tor1 cells grown PDS, purified as TOROID) MSVILVSAGYDHTIRFWEALTGVCSRTIQHSDSQVNRLEITNDKKLLATAGHQNVRLYDIRTTNPNPVASFEGHRGNVTSVSFQQDNRWMVTSSEDGTIKVWDVRSPSIPRNYKHNAPVNEVVIHPNQGELISCDRDGNIRIWDLGENQCTHQLTPEDDTSLQSLSMASDGSMLAAANTKGNCYVWEMPNHTDASHLKPVTKFRAHSTYITRILLSSDVKHLATCSADHTARVWSIDDDFKLETTLDGHQRWVWDCAFSADSAYLVTASSDHYVRLWDLSTREIVRQYGGHHKGAVCVALNDV | binds | binds | 
B1 | binds |  | binds
